Patent publication US5624900A, “Peptide or its salts” (Kuraray Co., Ltd., priority 1990, dated 1997)
Non-standard residues stand in square brackets, D forms with d. Nle = CCCC[C@H](N)C(=O)O

Each compound was assayed against T1, human IL-1β (Homo sapiens, UniProt P01584) (assay: Binding activity for human IL-1: 125I-labelled human IL-1β retained on peptide-immobilized cellulose adsorbent). Settings: radioactivity remaining on 100 mg adsorbent (1 mg peptide fixed per g cellulose) after about 300 Bq 125I-labelled human IL-1β, room temperature 3 hours, 5 washes; γ counter.
T1 construct: purchased Amersham Japan
T1 sequence (P01584 117-269): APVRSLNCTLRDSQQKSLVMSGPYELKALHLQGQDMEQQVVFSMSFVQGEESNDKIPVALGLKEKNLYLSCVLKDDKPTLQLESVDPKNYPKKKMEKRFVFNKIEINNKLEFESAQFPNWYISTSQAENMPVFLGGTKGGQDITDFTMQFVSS
Experimental: Adsorbents each having fixed 1 mg of one of the peptides obtained in Examples 1 through 15 and the Comparative Example were prepared as follows. One gram of a granular cellulose (CM-CELLULOFINE CH, available from Seikagaku Kogyo Co., Ltd.) is suspended in 5 ml of dioxane purified by distillation in the presence of sodium metal. To the suspension thus obtained was added 0.05 g of N-hydroxysuccinimide and 0.1 g of dicyclohexylcarbodimide, and the mixture was shaken at a room temperature for 1 night. The mixture thus obtained was washed with a 0.02 mole/l phosphate buffer (pH: 7.4) and then filtered with suction. The granules thus obtained were mixed with 1 ml of 0.02 mol/l phosphate buffer or purified water containing 1 mg of each one of the peptides obtained in Examples 1 through 15 and the Comparative Example. The mixtures were shaken overnight at a temperature of 4° C. and filtered with suction.
From the thus prepared adsorbents, 100 mg each was weighed, and thereto was added 100 μl of 5% solution of bovine serum albumin in PBS (a 10 mM phosphate buffer solution containing 0.15M NaCl, pH: 7.4). The mixtures were incubated overnight at 4° C., then about 300 Bq of ^125 I-labelled human IL-1β (purchased from Amersham Japan) was added to them and the mixtures were incubated at a room temperature for 3 hours. The reaction mixtures thus obtained were washed 5 times with Tris buffer containing 0.2% of Triton X-100 and then tested for radioactivity remaining on the adsorbents with a γ counter.

Radioactivity (cpm) | Compound
45 cpm | NCC(=O)O [Reference Example, glycine, reference compound]
678 cpm | H-Cys-Leu-Gln-Ile-Lys-Ile-Ser-OH (H-CLQIKIS-OH) [Example 8]
1292 cpm | H-K[Nle]C[Nle]R[Nle]Q[Nle]S-OH [Example 11]
576 cpm | H-Lys-Cys-Leu-Arg-Ile-Lys-Ile-Ser-OH (H-KCLRIKIS-OH) [Example 7]
1100 cpm | H-Lys-Cys-Leu-Gln-Ile-Gln-Ile-Ser-OH (H-KCLQIQIS-OH) [Example 9]
890 cpm | H-Lys-Cys-Val-Gln-Val-Gln-Val-Ser-OH (H-KCVQVQVS-OH) [Example 14]
1427 cpm | H-Lys-Ile-Cys-Ile-Arg-Ile-Gln-Ile-Ser-NH2 (H-KICIRIQIS-NH2) [Example 15]
1373 cpm | H-Lys-Ile-Cys-Ile-Arg-Ile-Gln-Ile-Ser-OH (H-KICIRIQIS-OH) [Example 10]
1167 cpm | H-Lys-Ile-Cys-Ile-His-Ile-Gln-Ile-Ser-OH (H-KICIHIQIS-OH) [Example 12]
1245 cpm | H-Lys-Ile-Cys-Leu-Arg-Ile-Gln-Ile-Ser-OH (H-KICLRIQIS-OH) [Example 13]

The remaining lines, values behind:

Compound | Radioactivity (cpm)
H-CLRIKIS-OH [Example 6] | 815 cpm
H-Lys-Asn-Ser-Ser-Tyr-Cys-Leu-Arg-Ile-Lys-Ile-Ser-Ala-Lys-Phe-Val-Glu-OH (H-KNSSYCLRIKISAKFVE-OH) [Example 2] | 764 cpm
H-Lys-Tyr-Cys-Leu-Arg-Ile-Lys-Ile-Ser-Ala-Lys-Phe-Val-Glu-Asn-Glu-Pro-OH (H-KYCLRIKISAKFVENEP-OH) [Example 3] | 1171 cpm
H-Tyr-Cys-Leu-Arg-Ile-Lys-Ile-Ser-Ala-Lys-OH (H-YCLRIKISAK-OH) [Example 4] | 891 cpm
H-Tyr-Cys-Leu-Arg-Ile-Lys-Ile-Ser-OH (H-YCLRIKIS-OH) [Example 5] | 840 cpm
H-Tyr-Ser-Leu-Glu-Ile-Lys-Ile-Ser-OH (H-YSLEIKIS-OH) [Comparative Example, reference compound] | 84 cpm
H-Val-Val-Arg-Asn-Ser-Ser-Tyr-Cys-Leu-Arg-Ile-Lys-Ile-Ser-Ala-Lys-OH (H-VVRNSSYCLRIKISAK-OH) [Example 1] | 922 cpm
